From US20030171537, “Peptides and peptidomimetics with structural similarity to human p53 that activate p53 function” (published 2003) come the findings set out here.

The series addresses p53 wild-type (Homo sapiens, UniProt P04637 SEQ:1-393). Kind of series: EMSA; binds quite efficiently; PAb421 stimulation +. As to conditions: chain copies: 4 inferred; label: 32P. (In general: A gel shift assay detects complexes by their altered migration in electrophoresis.)

p53 wild-type, sequence (P04637 whole entry): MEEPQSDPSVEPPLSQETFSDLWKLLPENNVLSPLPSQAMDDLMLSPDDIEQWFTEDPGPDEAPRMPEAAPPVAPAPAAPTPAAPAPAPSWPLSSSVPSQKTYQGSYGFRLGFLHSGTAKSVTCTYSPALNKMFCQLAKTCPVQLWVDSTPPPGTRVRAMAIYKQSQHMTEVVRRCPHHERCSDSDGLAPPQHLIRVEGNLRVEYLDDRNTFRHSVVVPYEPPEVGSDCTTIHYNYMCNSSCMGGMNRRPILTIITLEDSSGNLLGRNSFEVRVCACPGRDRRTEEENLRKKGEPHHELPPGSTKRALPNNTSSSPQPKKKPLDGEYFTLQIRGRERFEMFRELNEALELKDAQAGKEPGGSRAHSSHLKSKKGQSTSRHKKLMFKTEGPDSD
Method: Briefly the in vitro translated protein is incubated with a radioactively labeled oligonucleotide containing a p53 binding site in the presence of non-specific competitor DNA. The reaction mixture is incubated 20 min. at room temperature and directly loaded on a native 5% polyacrylamide electrophoresis gel. In this type of DNA binding assay free DNA migrates to the bottom of the gel, whereas p53/DNA complexes migrate more slowly.

B1: BC (dsDNA)
DNA 1: CCGGGCATGTCCGGGCATGTCCGGGCATGT
DNA 2: ACATGCCCGGACATGCCCGGACATGCCCGG
With B1, the binding result is “binds”.
